From patent publication US20240018263A1

Experiments:
[1] = target: VH-9.7 antigen on human patient-derived glioblastoma stem-like cells (GSC lines 12.1, 22, 33, 44, 99); assay: flow cytometry on cells dissociated from 44 GSC orthotopic xenografts, 125 nM predimerized VH-9.7
[2] = target: VH-9.7 antigen on human patient-derived glioblastoma stem-like cells (GSC lines 12.1, 22, 33, 44, 99); assay: flow cytometry titration of monomeric VH-9.7 on live 33 GSC, one-site equilibrium fit, four independent titrations

percent of cells labelled [1]: 17.9%
Kd [2]: 74.3 nM
B1: VH-9.7-CMYC-HIS6 (soluble, purified single domain antibody VH-9.7) (antibody, V domains shown)
VH: QVQLVESEAEVKKPGASVKVSCKASGYSFTNYYMHWVRQAPGQGLEWMGLIDPSGTSTTYAQKFQGRVTMTRDTSASTVYMELTSLRSEDTAMYYCVGEESGSGSFSDWGQGTLVTVSS
